Results on two molecules are retold here after patent publication US20260258115A1.

The target of experiment [1] is Respiratory Syncytial Virus fusion glycoprotein (RSV F) on RSV-A2 virus (Respiratory Syncytial Virus subtype A (RSV-A2)). In words: cell-based or functional assay.
In experiment [2] the target is RSV postfusion F (postF), F deltaFP (Respiratory Syncytial Virus). In words: BLI, IgG on anti-human IgG sensor, 100 nM antigen.
Experiment [3] has as its target RSV prefusion F (preF), DS-Cav1 (Respiratory Syncytial Virus). As to the kind of experiment: BLI, IgG on anti-human IgG sensor, 100 nM antigen.

B1: ADI-41230 (antibody, V domains shown)
VH: QVQLVQSGAEVKKPGESLKISCKASGYSFTSHYWIGWVRQMPGKGLEWMGFIFPGDSDTRYSPSLQGQVTISADKSTNTAYLQWNSLKASDTAMYYCARLEYLVSGFEYWGQGTLVTVSS
VL: QPGLTQPHSVSESPGKTVTISCTRSSGSIASNYVHWYQQRPGSFPTTVIYEDNQRPSGVPDRFSGSIDSSSNSASLTISGLRTEDEADYYCQSYDSSNPVVFGGGTKVTVL
The molecule B1 returned a Neutralization IC50 (RSV subtype A) in experiment [1] of 24.1 mg/L. Also, the Kd is 0.407 nM in experiment [2] and 1.83 nM in experiment [3].

B2: ADI-41231 (antibody, V domains shown)
VH: QVQLVQSGAEVKKPGESLKISCKGSGYSFTNNWVGWVRQMPGKGLEWMGIIFPGDSDTRYSPSFRGQVTISVDTSINTAFLQWNSLGASDTAMYYCAMTDYNYSFKSWGQGTLVTVSS
VL: NFMLTQPHSVSESPGKTITISCTRSSGNIGNNYVQWYQQRPGSSFTTVIYEDYQRPSGVPDRFSGSIDSSSNSATLTISGLKTEDEADYYCQSYDSSNPYVFGTGTKVTVL
On to B2, for which the Neutralization IC50 (RSV subtype A) in experiment [1] is more than 25 mg/L. Moreover, the results for the Kd in experiment [2] and in experiment [3] were 0.426 nM and 3.05 nM, respectively.
